Assay results published in patent US6034212.
Each block holds one binder with its values, some of them ahead of it. Ends that are not written are not given here. * marks the point of attachment. Biotin = O=C1N[C@H]2[C@H](CS[C@H]2CCCCC(=O)*)N1

Columns and labels:
[1] = target: GST-SH3-Yes fusion protein (Gallus gallus (Chicken)) (UniProt P09324); test: competition of labeled GST-YES-SH3 binding to blotted TrpE-YAP65
[2] = target: GST-WW-YAP fusion protein (WW domain of human YAP in pGEX-2TK) (human); test: competition of a fixed concentration of labelled GST-WW-YAP on blotted GST-…, densitometry (data not shown)

concentration required to partially compete for binding [1]: 200 µM
B1: PLAP peptide (peptide)
peptide: ISQSAPVKQPPPLAPQSPQGGV

IC50 [2]: 750 nM
B2: unlabelled decapeptide biotin-… containing the PY motif (peptide)
peptide: Biotin-GTPPPPYTVG
